# In patent publication US20030036642:
# pKd: −log10 of the molar value.
# Target: PDGF-AB (A-chain/B-chain heterodimer) (Homo sapiens) (UniProt P04085+P01127)
# Test: filter
# Chain of PDGF-AB (A-chain/B-chain heterodimer) (Homo sapiens) (P01127 82-190, chain 2 of 2, other chains not shown): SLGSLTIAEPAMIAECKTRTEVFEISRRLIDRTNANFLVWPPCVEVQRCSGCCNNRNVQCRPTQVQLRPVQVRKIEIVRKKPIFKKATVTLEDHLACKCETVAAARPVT
sequence,measurement,setting,value
ATCCGCCTGATTAGCGATACTNNNNNNNNNNNNNNNNNNNNNNNNNNNNNNNNNNNNNNNNACTTGAGCAAAATCACCTGCAGGGG [round 12 affinity-enriched ssDNA pool],pKd,"after 12 rounds, apparent Kd",10.30
ATCCGCCTGATTAGCGATACTNNNNNNNNNNNNNNNNNNNNNNNNNNNNNNNNNNNNNNNNACTTGAGCAAAATCACCTGCAGGGG [starting random ssDNA pool],binding signal (fold lower affinity than round 12 pool),,700
GGGAGACAAGAAUAACGCUCAANNNNNNNNNNNNNNNNNNNNNNNNNNNNNNNNNNNNNNNNNNNNNNNNNNUUCGACAGGAGGCUCACAACAGGC [starting random 2'-F-pyrimidine RNA pool],pKd,"2'-F all C,U, random 2'-F-pyrimidine RNA, method inferred",7.46
